Assay results: the Human Domainome abundance scans (Beltran et al. 2025)
± gives the uncertainty stated by the source.

B1: Cold shock protein CspB, residues 1 to 66; numbered along this chain, P41016 (parent)
chain: MQRGKVKWFNNEKGYGFIEVEGGSDVFVHFTAIQGEGFKTLEEGQEVSFEIVQGNRGPQAANVVKL
B2: Nucleosome-remodeling factor subunit BPTF, residues 2862 to 2918; numbered along this chain, Q12830 (parent)
chain: TKKDTKLYCICKTPYDESKFYIGCDRCQNWYHGRCVGILQSEAELIDEYVCPQCQST

Variants of: B1
Assay: abundance fitness (aPCA) (normalised: wild type 0, dead -1); higher = more abundant; growth selection in yeast, the domain comes from the species named
Conditions: Bacillus caldolyticus

K65Q and K65R are within error of each other in abundance fitness: -0.023 ± 0.06 for the first, 0.004 ± 0.044 for the second.

K65S and K65T are within error of each other in abundance fitness: -0.015 ± 0.035 for the first, -0.003 ± 0.055 for the second.

Going from K65V to K65W, the abundance fitness falls from -0.015 ± 0.056 to -0.145 ± 0.055.

K65Y and L66A are within error of each other in abundance fitness: -0.13 ± 0.047 for the first, -0.055 ± 0.065 for the second.

L66C and L66D are within error of each other in abundance fitness: -0.067 ± 0.084 for the first, -0.101 ± 0.18 for the second.

L66E and L66F are within error of each other in abundance fitness: -0.01 ± 0.12 for the first, 0.033 ± 0.086 for the second.

Compared with L66G, L66H is lower in abundance fitness: 0.005 ± 0.08 for the first, -0.214 ± 0.11 for the second.

L66I and L66M are within error of each other in abundance fitness: -0.044 ± 0.083 for the first, -0.018 ± 0.057 for the second.

L66P and L66Q are within error of each other in abundance fitness: -0.022 ± 0.043 for the first, 0.021 ± 0.057 for the second.

L66R and L66S are within error of each other in abundance fitness: -0.018 ± 0.042 for the first, -0.016 ± 0.04 for the second.

L66T and L66V are within error of each other in abundance fitness: -0.023 ± 0.057 for the first, 0.025 ± 0.063 for the second.

L66W and L66Y are within error of each other in abundance fitness: 0.004 ± 0.05 for the first, -0.054 ± 0.12 for the second.

Variants of: B2
Assay: as above
Conditions: Homo sapiens

AKKDTKLYCICKTPYDESKFYIGCDRCQNWYHGRCVGILQSEAELIDEYVCPQCQST [T1A] and DKKDTKLYCICKTPYDESKFYIGCDRCQNWYHGRCVGILQSEAELIDEYVCPQCQST [T1D] are within error of each other in abundance fitness: -0.54 ± 0.29 for the first, -0.071 ± 0.34 for the second.

EKKDTKLYCICKTPYDESKFYIGCDRCQNWYHGRCVGILQSEAELIDEYVCPQCQST [T1E] and GKKDTKLYCICKTPYDESKFYIGCDRCQNWYHGRCVGILQSEAELIDEYVCPQCQST [T1G] are within error of each other in abundance fitness: -0.185 ± 0.28 for the first, -0.147 ± 0.15 for the second.

HKKDTKLYCICKTPYDESKFYIGCDRCQNWYHGRCVGILQSEAELIDEYVCPQCQST [T1H] and IKKDTKLYCICKTPYDESKFYIGCDRCQNWYHGRCVGILQSEAELIDEYVCPQCQST [T1I] are within error of each other in abundance fitness: -0.277 ± 0.26 for the first, -0.132 ± 0.19 for the second.

KKKDTKLYCICKTPYDESKFYIGCDRCQNWYHGRCVGILQSEAELIDEYVCPQCQST [T1K] and LKKDTKLYCICKTPYDESKFYIGCDRCQNWYHGRCVGILQSEAELIDEYVCPQCQST [T1L] are within error of each other in abundance fitness: -0.199 ± 0.16 for the first, -0.256 ± 0.18 for the second.

MKKDTKLYCICKTPYDESKFYIGCDRCQNWYHGRCVGILQSEAELIDEYVCPQCQST [T1M] and NKKDTKLYCICKTPYDESKFYIGCDRCQNWYHGRCVGILQSEAELIDEYVCPQCQST [T1N] are within error of each other in abundance fitness: -0.13 ± 0.19 for the first, 0.018 ± 0.22 for the second.

PKKDTKLYCICKTPYDESKFYIGCDRCQNWYHGRCVGILQSEAELIDEYVCPQCQST [T1P] and RKKDTKLYCICKTPYDESKFYIGCDRCQNWYHGRCVGILQSEAELIDEYVCPQCQST [T1R] are within error of each other in abundance fitness: -0.264 ± 0.18 for the first, -0.281 ± 0.15 for the second.

SKKDTKLYCICKTPYDESKFYIGCDRCQNWYHGRCVGILQSEAELIDEYVCPQCQST [T1S] and VKKDTKLYCICKTPYDESKFYIGCDRCQNWYHGRCVGILQSEAELIDEYVCPQCQST [T1V] are within error of each other in abundance fitness: -0.104 ± 0.091 for the first, -0.177 ± 0.17 for the second.

WKKDTKLYCICKTPYDESKFYIGCDRCQNWYHGRCVGILQSEAELIDEYVCPQCQST [T1W] and TKADTKLYCICKTPYDESKFYIGCDRCQNWYHGRCVGILQSEAELIDEYVCPQCQST [K3A] are within error of each other in abundance fitness: -0.152 ± 0.19 for the first, -0.146 ± 0.073 for the second.

First: TKCDTKLYCICKTPYDESKFYIGCDRCQNWYHGRCVGILQSEAELIDEYVCPQCQST [K3C]
Second: TKDDTKLYCICKTPYDESKFYIGCDRCQNWYHGRCVGILQSEAELIDEYVCPQCQST [K3D]
The abundance fitness of the first is lower: -0.697 ± 0.15 for the first, -0.097 ± 0.16 for the second.

TKEDTKLYCICKTPYDESKFYIGCDRCQNWYHGRCVGILQSEAELIDEYVCPQCQST [K3E] and TKFDTKLYCICKTPYDESKFYIGCDRCQNWYHGRCVGILQSEAELIDEYVCPQCQST [K3F] are within error of each other in abundance fitness: 0.014 ± 0.12 for the first, -0.041 ± 0.11 for the second.

Compared with TKGDTKLYCICKTPYDESKFYIGCDRCQNWYHGRCVGILQSEAELIDEYVCPQCQST [K3G], TKHDTKLYCICKTPYDESKFYIGCDRCQNWYHGRCVGILQSEAELIDEYVCPQCQST [K3H] is lower in abundance fitness: -0.148 ± 0.071 for the first, -0.424 ± 0.16 for the second.

TKIDTKLYCICKTPYDESKFYIGCDRCQNWYHGRCVGILQSEAELIDEYVCPQCQST [K3I] and TKLDTKLYCICKTPYDESKFYIGCDRCQNWYHGRCVGILQSEAELIDEYVCPQCQST [K3L] are within error of each other in abundance fitness: -0.057 ± 0.097 for the first, -0.111 ± 0.073 for the second.

TKMDTKLYCICKTPYDESKFYIGCDRCQNWYHGRCVGILQSEAELIDEYVCPQCQST [K3M] and TKNDTKLYCICKTPYDESKFYIGCDRCQNWYHGRCVGILQSEAELIDEYVCPQCQST [K3N] are within error of each other in abundance fitness: -0.152 ± 0.11 for the first, -0.379 ± 0.15 for the second.

TKQDTKLYCICKTPYDESKFYIGCDRCQNWYHGRCVGILQSEAELIDEYVCPQCQST [K3Q] and TKRDTKLYCICKTPYDESKFYIGCDRCQNWYHGRCVGILQSEAELIDEYVCPQCQST [K3R] are within error of each other in abundance fitness: -0.032 ± 0.14 for the first, -0.131 ± 0.068 for the second.

TKSDTKLYCICKTPYDESKFYIGCDRCQNWYHGRCVGILQSEAELIDEYVCPQCQST [K3S] and TKTDTKLYCICKTPYDESKFYIGCDRCQNWYHGRCVGILQSEAELIDEYVCPQCQST [K3T] are within error of each other in abundance fitness: 0.036 ± 0.078 for the first, 0.013 ± 0.084 for the second.

First: TKVDTKLYCICKTPYDESKFYIGCDRCQNWYHGRCVGILQSEAELIDEYVCPQCQST [K3V]
Second: TKWDTKLYCICKTPYDESKFYIGCDRCQNWYHGRCVGILQSEAELIDEYVCPQCQST [K3W]
The abundance fitness of the first is higher: -0.009 ± 0.073 for the first, -0.629 ± 0.12 for the second.

TKYDTKLYCICKTPYDESKFYIGCDRCQNWYHGRCVGILQSEAELIDEYVCPQCQST [K3Y] and TKKATKLYCICKTPYDESKFYIGCDRCQNWYHGRCVGILQSEAELIDEYVCPQCQST [D4A] are within error of each other in abundance fitness: -0.273 ± 0.13 for the first, -0.18 ± 0.062 for the second.

Compared with TKKCTKLYCICKTPYDESKFYIGCDRCQNWYHGRCVGILQSEAELIDEYVCPQCQST [D4C], TKKETKLYCICKTPYDESKFYIGCDRCQNWYHGRCVGILQSEAELIDEYVCPQCQST [D4E] is higher in abundance fitness: -0.316 ± 0.087 for the first, -0.005 ± 0.1 for the second.

TKKFTKLYCICKTPYDESKFYIGCDRCQNWYHGRCVGILQSEAELIDEYVCPQCQST [D4F] and TKKGTKLYCICKTPYDESKFYIGCDRCQNWYHGRCVGILQSEAELIDEYVCPQCQST [D4G] are within error of each other in abundance fitness: -0.226 ± 0.077 for the first, -0.163 ± 0.063 for the second.

TKKHTKLYCICKTPYDESKFYIGCDRCQNWYHGRCVGILQSEAELIDEYVCPQCQST [D4H] and TKKITKLYCICKTPYDESKFYIGCDRCQNWYHGRCVGILQSEAELIDEYVCPQCQST [D4I] are within error of each other in abundance fitness: -0.195 ± 0.06 for the first, -0.179 ± 0.065 for the second.
